Measured values as given in the supplement of paper PMC10065799, “High-throughput profiling of sequence recognition by tyrosine kinases and SH2 domains using bacterial peptide display” (eLife, 2023).

Legend:
SHP2-C SH2 = test: SH2 binding enrichment of the phosphorylated peptide, bacterial display (enrichment ratio); higher = better substrate or ligand; peptides without Tyr show the background
Grb2 SH2 = Grb2 SH2 (UniProt P62993); test: as above
c-Src SH2 = test: as above
EPHB1 = EPHB1 (UniProt P54762); test: phosphorylation enrichment, bacterial display (enrichment ratio); higher = better substrate or ligand; peptides without Tyr show the background
c-Src = test: as above
EPHB2 = EPHB2 (UniProt P29323); test: as above
Jak2 = Jak2 (UniProt O60674); test: as above
AncSZ = test: as above
FGFR1 = FGFR1 (UniProt P11362); test: as above
FGFR3 = FGFR3 (UniProt P22607); test: as above
Fyn = Fyn (UniProt P06241); test: as above
Fer (mouse) = test: as above
Hck = Hck (UniProt P08631); test: as above
c-Abl (mouse) = test: as above
Fes = Fes (UniProt P07332); test: as above
MERTK = MERTK (UniProt Q12866); test: as above
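Wherever SH2 binding enrichment of the phosphorylated peptide, bacterial display is given: peptide library displayed on the E. coli surface as eCPX fusions, selected cells deep-sequenced, score is each peptide's frequency after selection divided by its frequency in the input.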
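Wherever phosphorylation enrichment, bacterial display is given: 11-residue human phosphosite peptides and single-mutation variants displayed on the E. coli surface, counted by deep sequencing, each peptide's frequency after selection divided by its frequency in the unselected input library; frequency after pTyr selection over input frequency; kinase dosed for 20-30% of maximal phosphorylation in three min.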

EPHB1, sequence (P54762 whole entry, looked up): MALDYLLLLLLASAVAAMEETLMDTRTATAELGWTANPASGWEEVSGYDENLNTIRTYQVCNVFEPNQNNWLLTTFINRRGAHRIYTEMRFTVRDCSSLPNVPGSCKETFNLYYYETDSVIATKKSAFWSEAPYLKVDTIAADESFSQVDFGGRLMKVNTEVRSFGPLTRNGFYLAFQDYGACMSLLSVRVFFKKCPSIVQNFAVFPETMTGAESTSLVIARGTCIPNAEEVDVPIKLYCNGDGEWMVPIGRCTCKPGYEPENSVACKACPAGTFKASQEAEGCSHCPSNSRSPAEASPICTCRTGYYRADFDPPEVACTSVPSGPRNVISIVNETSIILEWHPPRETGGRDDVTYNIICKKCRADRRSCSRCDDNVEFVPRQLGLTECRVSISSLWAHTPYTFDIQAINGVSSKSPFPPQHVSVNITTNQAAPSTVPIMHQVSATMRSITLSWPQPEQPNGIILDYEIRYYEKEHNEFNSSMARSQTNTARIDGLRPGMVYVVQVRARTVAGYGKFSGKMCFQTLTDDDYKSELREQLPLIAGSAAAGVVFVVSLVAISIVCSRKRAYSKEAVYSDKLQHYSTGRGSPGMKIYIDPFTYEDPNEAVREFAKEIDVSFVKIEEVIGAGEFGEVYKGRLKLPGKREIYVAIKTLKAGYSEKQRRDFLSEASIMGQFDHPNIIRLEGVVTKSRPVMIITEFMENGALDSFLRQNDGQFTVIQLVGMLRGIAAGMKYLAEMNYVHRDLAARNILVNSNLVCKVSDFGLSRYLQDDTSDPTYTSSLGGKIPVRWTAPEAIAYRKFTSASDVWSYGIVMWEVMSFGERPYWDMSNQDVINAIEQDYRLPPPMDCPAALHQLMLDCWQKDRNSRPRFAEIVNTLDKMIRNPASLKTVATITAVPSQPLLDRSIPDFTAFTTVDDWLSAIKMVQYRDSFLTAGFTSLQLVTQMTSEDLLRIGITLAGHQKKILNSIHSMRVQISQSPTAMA
Fyn, sequence (P06241 whole entry, looked up): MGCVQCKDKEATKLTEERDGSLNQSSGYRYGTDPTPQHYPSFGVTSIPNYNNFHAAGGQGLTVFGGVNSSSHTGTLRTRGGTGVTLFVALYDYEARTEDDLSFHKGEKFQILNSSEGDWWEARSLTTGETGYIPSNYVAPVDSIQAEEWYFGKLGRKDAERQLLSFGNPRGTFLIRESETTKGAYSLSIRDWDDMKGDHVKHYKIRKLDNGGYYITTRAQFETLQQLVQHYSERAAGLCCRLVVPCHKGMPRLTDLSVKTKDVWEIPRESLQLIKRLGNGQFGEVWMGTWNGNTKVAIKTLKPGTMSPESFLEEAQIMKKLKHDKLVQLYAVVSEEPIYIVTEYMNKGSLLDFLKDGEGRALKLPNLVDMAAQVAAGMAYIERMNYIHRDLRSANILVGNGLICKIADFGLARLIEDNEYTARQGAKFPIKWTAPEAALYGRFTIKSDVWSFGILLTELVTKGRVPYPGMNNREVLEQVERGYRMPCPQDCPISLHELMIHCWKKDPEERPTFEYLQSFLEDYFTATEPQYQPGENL
MERTK, sequence (Q12866 whole entry, looked up, the tested form may be a part): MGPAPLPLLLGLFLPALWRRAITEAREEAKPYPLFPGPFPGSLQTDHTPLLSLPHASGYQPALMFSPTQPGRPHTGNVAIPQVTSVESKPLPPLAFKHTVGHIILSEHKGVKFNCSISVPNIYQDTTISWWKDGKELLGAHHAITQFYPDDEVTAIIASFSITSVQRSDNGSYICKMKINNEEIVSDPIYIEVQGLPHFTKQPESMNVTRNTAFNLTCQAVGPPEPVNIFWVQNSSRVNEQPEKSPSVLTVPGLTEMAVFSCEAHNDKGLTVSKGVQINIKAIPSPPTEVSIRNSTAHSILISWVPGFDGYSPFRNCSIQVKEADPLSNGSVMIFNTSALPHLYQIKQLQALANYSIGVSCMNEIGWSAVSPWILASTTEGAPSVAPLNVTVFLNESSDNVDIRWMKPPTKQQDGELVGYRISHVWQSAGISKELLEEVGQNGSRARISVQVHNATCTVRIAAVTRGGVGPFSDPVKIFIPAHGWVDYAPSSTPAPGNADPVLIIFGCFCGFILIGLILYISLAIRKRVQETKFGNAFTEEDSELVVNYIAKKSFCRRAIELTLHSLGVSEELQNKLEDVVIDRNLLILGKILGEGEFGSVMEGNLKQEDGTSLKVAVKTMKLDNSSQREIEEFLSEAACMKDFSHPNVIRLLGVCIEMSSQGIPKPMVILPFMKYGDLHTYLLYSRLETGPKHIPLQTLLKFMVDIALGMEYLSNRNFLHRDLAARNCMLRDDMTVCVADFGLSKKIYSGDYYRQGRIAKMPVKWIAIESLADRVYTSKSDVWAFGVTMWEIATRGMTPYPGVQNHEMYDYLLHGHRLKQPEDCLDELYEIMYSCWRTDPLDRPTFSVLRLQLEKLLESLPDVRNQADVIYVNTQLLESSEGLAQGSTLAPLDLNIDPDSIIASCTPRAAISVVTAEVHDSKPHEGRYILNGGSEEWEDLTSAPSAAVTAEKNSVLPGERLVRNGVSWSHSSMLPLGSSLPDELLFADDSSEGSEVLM
Hck, sequence (P08631 whole entry, looked up): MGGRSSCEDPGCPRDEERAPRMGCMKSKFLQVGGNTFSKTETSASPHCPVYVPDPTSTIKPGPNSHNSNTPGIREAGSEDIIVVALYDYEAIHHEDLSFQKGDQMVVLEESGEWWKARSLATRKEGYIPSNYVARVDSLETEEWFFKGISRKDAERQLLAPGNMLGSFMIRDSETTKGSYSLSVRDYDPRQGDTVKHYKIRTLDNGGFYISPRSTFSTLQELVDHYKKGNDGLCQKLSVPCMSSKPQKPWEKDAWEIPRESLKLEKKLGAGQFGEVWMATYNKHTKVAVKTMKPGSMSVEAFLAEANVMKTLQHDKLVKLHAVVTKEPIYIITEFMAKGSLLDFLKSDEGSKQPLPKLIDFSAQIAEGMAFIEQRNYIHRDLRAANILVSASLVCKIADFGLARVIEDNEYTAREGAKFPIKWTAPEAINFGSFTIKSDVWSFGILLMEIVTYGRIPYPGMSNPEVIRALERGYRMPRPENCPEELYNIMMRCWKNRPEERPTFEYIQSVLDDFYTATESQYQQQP
Fes, sequence (P07332 whole entry, looked up): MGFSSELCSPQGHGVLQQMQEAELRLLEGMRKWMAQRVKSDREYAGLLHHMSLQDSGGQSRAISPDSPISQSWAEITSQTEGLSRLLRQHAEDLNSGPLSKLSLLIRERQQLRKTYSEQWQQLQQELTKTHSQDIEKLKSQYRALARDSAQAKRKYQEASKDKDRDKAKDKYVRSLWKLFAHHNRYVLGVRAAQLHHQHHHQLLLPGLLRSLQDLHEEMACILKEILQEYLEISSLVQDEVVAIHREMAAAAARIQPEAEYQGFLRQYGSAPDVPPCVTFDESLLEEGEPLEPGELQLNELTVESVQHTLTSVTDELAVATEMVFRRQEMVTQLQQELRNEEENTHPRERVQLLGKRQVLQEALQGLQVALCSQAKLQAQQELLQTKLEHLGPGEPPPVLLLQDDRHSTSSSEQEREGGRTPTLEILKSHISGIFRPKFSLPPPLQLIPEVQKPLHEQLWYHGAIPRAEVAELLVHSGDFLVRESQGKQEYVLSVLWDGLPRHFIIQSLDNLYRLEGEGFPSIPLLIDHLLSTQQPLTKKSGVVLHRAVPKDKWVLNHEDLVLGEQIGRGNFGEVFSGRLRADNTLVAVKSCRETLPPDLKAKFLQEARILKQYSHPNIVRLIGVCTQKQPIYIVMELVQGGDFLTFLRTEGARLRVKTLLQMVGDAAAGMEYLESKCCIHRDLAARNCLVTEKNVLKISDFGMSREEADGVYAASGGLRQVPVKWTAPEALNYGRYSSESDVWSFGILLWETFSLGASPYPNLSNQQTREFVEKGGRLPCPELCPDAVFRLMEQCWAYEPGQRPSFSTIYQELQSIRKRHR
EPHB2, sequence (P29323 whole entry, looked up): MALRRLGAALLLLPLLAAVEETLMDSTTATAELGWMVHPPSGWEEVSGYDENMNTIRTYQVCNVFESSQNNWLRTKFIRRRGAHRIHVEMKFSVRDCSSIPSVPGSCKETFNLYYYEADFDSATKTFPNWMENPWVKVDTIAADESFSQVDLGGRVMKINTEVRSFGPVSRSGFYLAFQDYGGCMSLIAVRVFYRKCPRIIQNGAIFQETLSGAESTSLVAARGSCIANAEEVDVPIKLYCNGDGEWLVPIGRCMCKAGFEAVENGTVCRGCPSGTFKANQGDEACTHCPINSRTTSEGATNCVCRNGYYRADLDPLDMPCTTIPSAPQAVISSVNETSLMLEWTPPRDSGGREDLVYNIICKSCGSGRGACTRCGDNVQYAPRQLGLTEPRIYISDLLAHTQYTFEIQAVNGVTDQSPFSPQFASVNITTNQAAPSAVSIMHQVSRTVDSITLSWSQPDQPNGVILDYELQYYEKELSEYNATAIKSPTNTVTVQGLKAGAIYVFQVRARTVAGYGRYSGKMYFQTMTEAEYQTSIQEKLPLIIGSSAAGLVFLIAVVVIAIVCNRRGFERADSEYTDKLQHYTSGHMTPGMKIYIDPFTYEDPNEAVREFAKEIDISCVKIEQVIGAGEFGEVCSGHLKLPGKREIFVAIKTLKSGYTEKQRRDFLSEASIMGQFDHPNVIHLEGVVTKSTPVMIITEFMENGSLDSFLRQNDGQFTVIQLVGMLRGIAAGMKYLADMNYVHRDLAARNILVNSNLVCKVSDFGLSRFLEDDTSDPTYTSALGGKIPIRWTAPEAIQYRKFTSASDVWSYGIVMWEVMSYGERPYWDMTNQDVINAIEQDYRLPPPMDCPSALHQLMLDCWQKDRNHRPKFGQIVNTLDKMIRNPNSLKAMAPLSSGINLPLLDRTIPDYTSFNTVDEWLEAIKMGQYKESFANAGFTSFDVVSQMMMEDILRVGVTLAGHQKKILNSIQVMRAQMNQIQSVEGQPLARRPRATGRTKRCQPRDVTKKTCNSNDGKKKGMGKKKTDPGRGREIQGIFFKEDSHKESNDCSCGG

| SH2 binding enrichment (SHP2-C SH2) | SH2 binding enrichment (Grb2 SH2) | SH2 binding enrichment (c-Src SH2) | Sequence | phosphorylation enrichment (EPHB1) | phosphorylation enrichment (c-Src) | phosphorylation enrichment (EPHB2) | phosphorylation enrichment (Jak2) | phosphorylation enrichment (AncSZ) | phosphorylation enrichment (FGFR1) | phosphorylation enrichment (FGFR3) | phosphorylation enrichment (Fyn) | phosphorylation enrichment (Fer (mouse)) | phosphorylation enrichment (Hck) | phosphorylation enrichment (c-Abl (mouse)) | phosphorylation enrichment (Fes) | phosphorylation enrichment (MERTK) |
| --- | --- | --- | --- | --- | --- | --- | --- | --- | --- | --- | --- | --- | --- | --- | --- | --- |
| 0.553 | 0.812 | 0.444 | KDFTIHNPNLL [VANGL1_Y290_Y290H] | 0.516 | 0.439 | 0.366 | 0.654 | 0.698 | 0.424 | 0.561 | 0.369 | 0.353 | 0.392 | 0.574 | 0.829 | 0.453 |
| 0.537 | 0.703 | 0.511 | KDFTIYNPNLL [VANGL1_Y290] | 0.419 | 1.2 | 0.42 | 0.815 | 0.722 | 0.434 | 0.518 | 0.787 | 0.599 | 1.58 | 0.71 | 0.835 | 0.478 |
| 0.686 | 1.07 | 0.598 | KDGIGYISAAE [CALM2_Y100_N98I] | 0.393 | 0.427 | 0.424 | 0.589 | 0.635 | 0.476 | 0.517 | 0.466 | 0.464 | 0.454 | 0.557 | 0.763 | 0.476 |
| 0.685 | 0.823 | 0.47 | KDHLDYKFQPR [SOX9_Y172_P170L_YF] | 0.475 | 0.504 | 0.478 | 0.922 | 0.73 | 0.498 | 0.531 | 0.431 | 0.392 | 0.352 | 0.642 | 1.02 | 0.409 |
| 0.689 | 1.19 | 0.586 | KDHPDYEYQPR [SOX9_Y172_K173E] | 2.21 | 0.474 | 0.958 | 0.811 | 2.59 | 0.844 | 0.771 | 0.667 | 0.465 | 0.588 | 0.665 | 0.961 | 0.432 |
| 0.783 | 1 | 0.553 | KDHPDYKFPPR [SOX10_Y171_Q174P_YF] | 0.387 | 0.434 | 0.444 | 0.564 | 0.883 | 0.656 | 0.762 | 0.415 | 0.376 | 0.382 | 0.52 | 0.685 | 0.393 |
| 0.687 | 0.979 | 0.526 | KDIENYIQDGK [RAD50_Y964] | 0.504 | 0.461 | 0.515 | 0.82 | 0.923 | 0.543 | 0.616 | 0.433 | 0.416 | 0.45 | 0.639 | 0.965 | 0.464 |
| 0.441 | 0.769 | 0.459 | KDLPNYNWNSF [KISS1_Y112] | 0.505 | 0.507 | 0.63 | 0.767 | 0.904 | 0.432 | 0.521 | 0.446 | 0.604 | 0.416 | 0.639 | 0.855 | 0.491 |
| 0.568 | 0.981 | 0.461 | KEINDYVEKGT [SERPINA1_Y184_Q180E] | 0.513 | 0.517 | 0.56 | 0.75 | 1.21 | 0.558 | 0.632 | 0.514 | 0.492 | 0.515 | 0.621 | 0.954 | 0.439 |
| 0.611 | 0.834 | 0.456 | KELALYDENWF [RPS19_Y48_P47L] | 8.19 | 1.39 | 11.5 | 1.44 | 1.5 | 0.729 | 0.947 | 1.02 | 7.67 | 1.41 | 1.06 | 1.43 | 7.19 |
| 1.22 | 4.8 | 5.64 | KGPGEYVNIEF [IRS1_Y896_S892G] | 0.708 | 0.484 | 0.639 | 0.691 | 0.958 | 1.43 | 1.14 | 0.58 | 0.475 | 0.498 | 0.493 | 0.79 | 0.442 |
| 0.595 | 0.806 | 0.552 | KHCEDYVFSYN [DSC1_Y846_C848F] | 0.855 | 1.77 | 0.719 | 1.08 | 2.06 | 2.41 | 1.98 | 0.576 | 0.511 | 0.521 | 0.778 | 1.31 | 0.489 |
| 0.606 | 0.761 | 0.469 | KKARAYRPGIE [FLNA_Y287_G288R] | 0.289 | 0.449 | 0.417 | 0.565 | 0.499 | 0.299 | 0.357 | 0.338 | 0.31 | 0.323 | 0.455 | 0.45 | 0.371 |
| 0.826 | 0.883 | 0.703 | KKCTTYIDCDL [ASPA_Y64_R63T] | 0.48 | 0.415 | 0.474 | 0.81 | 0.975 | 0.571 | 0.665 | 0.42 | 0.713 | 0.491 | 0.601 | 1.14 | 0.391 |
| 0.895 | 0.855 | 1.07 | KKDGPYDVVVL [PARK7_Y67_E64D] | 0.991 | 0.569 | 0.53 | 0.608 | 0.906 | 0.449 | 0.602 | 0.562 | 3.37 | 0.507 | 0.629 | 0.9 | 0.589 |
